Laboratory results published in article PMC5070160, “Efficient biosynthesis of ethyl (R)-4-chloro-3-hydroxybutyrate using a stereoselective carbonyl reductase from Burkholderia gladioli” (BMC Biotechnology, 2016).

Legend:
purified protein [1] = substrate: NC(=O)C1=CN([C@@H]2O[C@H](COP(=O)(O)OP(=O)(O)OC[C@H]3O[C@@H](n4cnc5c(N)ncnc54)[C@H](O)[C@@H]3O)[C@@H](O)[C@H]2O)C=CC1; test: purified protein; format: biochemical, Burkholderia gladioli; conditions: apparent, COBE (ethyl 4-chloro-3-oxobutanoate) 50 mM, NADH 0.01-0.5 mM, pH 6.5, 40 °C, varied: cofactor
purified protein [2] = substrate: NC(=O)C1=CN([C@@H]2O[C@H](COP(=O)(O)OP(=O)(O)OC[C@H]3O[C@@H](n4cnc5c(N)ncnc54)[C@H](OP(=O)(O)O)[C@@H]3O)[C@@H](O)[C@H]2O)C=CC1; test: purified protein; format: biochemical, Burkholderia gladioli; conditions: apparent, COBE (ethyl 4-chloro-3-oxobutanoate) 50 mM, NADPH 0.01-0.5 mM, pH 6.5, 40 °C, varied: cofactor

B1: BgADH3 (Burkholderia gladioli BSR3) (protein)
chain: MSETNSRRDFLRHAAAGTAGVAVAAVPGIAAAADGAPDAMPPLARMRNPHDLYPRAPFARQVQPVPGLASKMVPRPDHGETSYRGSNRLAGRKALVTGGDSGIGRAAAIAFAREGADVAINYLPVEESDAREVVALIRKEGRKCVAIPGDIRTEAFCRQLVERAVAELGGLDVLVSNAGHQQARDDIQDISSEQFEQTMKTNVYAPFWIAKAALPHMPAGSSVILTTSEQAFLPSANLLDYAPTKAANIAFVKALAKQQAPRGIRVNAVAPGATWTPLQTSGGQPPEVIDRFGQDNPTGRPAQPVELAPLYVTLASAESSFSSGQVFGANGATGAA
Km (purified protein [1]): 0.058 mM | Vmax (purified protein [1]): 3.4 µmol/min/mg | kcat (purified protein [1]): 3.97 s⁻¹ | kcat/Km (purified protein [1]): 68300 M⁻¹ s⁻¹ | Km (purified protein [2]): 0.081 mM | Vmax (purified protein [2]): 9.1 µmol/min/mg | kcat (purified protein [2]): 10.6 s⁻¹ | kcat/Km (purified protein [2]): 131000 M⁻¹ s⁻¹
